B1: MYT4512 (antibody, V domains shown)
VH: EVQLVESGGGLVQPGGSLRLSCAASGFNIRTQSIHWVRQAPGKGLEWIGDIFPIDGITDYADSVKGRFTISADTSKNTAYLQMNSLRAEDTAVYYCARGSWSWPSGMDYYLDYWGQGTLVTVSS
VL: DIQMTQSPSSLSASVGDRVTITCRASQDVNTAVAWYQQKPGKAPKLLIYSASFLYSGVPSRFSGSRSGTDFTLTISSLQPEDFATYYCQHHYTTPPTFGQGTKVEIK
notes: IgG
B2: MYT4519 (antibody, V domains shown)
VH: EVQLVESGGGLVQPGGSLRLSCAASGFNIRTQSIHWVRQAPGKGLEWIGDIFPIDGITDYADSVKGRFTISADTSKNTAYLQMNSLRAEDTAVYYCARGSWSWPSGMDYYLDYWGQGTLVTVSS
VL: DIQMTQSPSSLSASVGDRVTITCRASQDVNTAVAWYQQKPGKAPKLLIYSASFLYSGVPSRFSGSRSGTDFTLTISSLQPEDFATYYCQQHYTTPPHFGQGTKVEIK
notes: IgG
B3: MYT4516 (antibody, V domains shown)
VH: EVQLVESGGGLVQPGGSLRLSCAASGFNIRTQSIHWVRQAPGKGLEWIGDIFPIDGITDYADSVKGRFTISADTSKNTAYLQMNSLRAEDTAVYYCARGSWSWPSGMDYYLDYWGQGTLVTVSS
VL: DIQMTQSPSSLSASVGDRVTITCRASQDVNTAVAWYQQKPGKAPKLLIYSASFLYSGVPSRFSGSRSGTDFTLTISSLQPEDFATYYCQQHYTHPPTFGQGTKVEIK
notes: IgG
B4: MYT4513 (antibody, V domains shown)
VH: EVQLVESGGGLVQPGGSLRLSCAASGFNIRTQSIHWVRQAPGKGLEWIGDIFPIDGITDYADSVKGRFTISADTSKNTAYLQMNSLRAEDTAVYYCARGSWSWPSGMDYYLDYWGQGTLVTVSS
VL: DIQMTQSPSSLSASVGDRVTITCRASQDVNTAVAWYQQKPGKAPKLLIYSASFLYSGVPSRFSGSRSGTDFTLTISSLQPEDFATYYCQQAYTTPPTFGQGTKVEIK
notes: IgG
B5: MYT4517 (antibody, V domains shown)
VH: EVQLVESGGGLVQPGGSLRLSCAASGFNIRTQSIHWVRQAPGKGLEWIGDIFPIDGITDYADSVKGRFTISADTSKNTAYLQMNSLRAEDTAVYYCARGSWSWPSGMDYYLDYWGQGTLVTVSS
VL: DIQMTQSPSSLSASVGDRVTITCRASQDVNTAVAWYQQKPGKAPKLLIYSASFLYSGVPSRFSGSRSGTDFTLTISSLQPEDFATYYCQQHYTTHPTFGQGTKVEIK
notes: IgG
B6: MYT4518 (antibody, V domains shown)
VH: EVQLVESGGGLVQPGGSLRLSCAASGFNIRTQSIHWVRQAPGKGLEWIGDIFPIDGITDYADSVKGRFTISADTSKNTAYLQMNSLRAEDTAVYYCARGSWSWPSGMDYYLDYWGQGTLVTVSS
VL: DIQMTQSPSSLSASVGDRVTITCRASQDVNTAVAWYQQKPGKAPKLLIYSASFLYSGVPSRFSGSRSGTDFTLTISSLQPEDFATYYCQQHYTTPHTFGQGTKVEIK
notes: IgG
B7: MYT4514 (antibody, V domains shown)
VH: EVQLVESGGGLVQPGGSLRLSCAASGFNIRTQSIHWVRQAPGKGLEWIGDIFPIDGITDYADSVKGRFTISADTSKNTAYLQMNSLRAEDTAVYYCARGSWSWPSGMDYYLDYWGQGTLVTVSS
VL: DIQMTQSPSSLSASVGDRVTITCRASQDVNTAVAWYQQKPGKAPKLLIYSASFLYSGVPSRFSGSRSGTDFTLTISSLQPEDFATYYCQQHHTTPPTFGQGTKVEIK
notes: IgG
B8: MYT4515 (antibody, V domains shown)
VH: EVQLVESGGGLVQPGGSLRLSCAASGFNIRTQSIHWVRQAPGKGLEWIGDIFPIDGITDYADSVKGRFTISADTSKNTAYLQMNSLRAEDTAVYYCARGSWSWPSGMDYYLDYWGQGTLVTVSS
VL: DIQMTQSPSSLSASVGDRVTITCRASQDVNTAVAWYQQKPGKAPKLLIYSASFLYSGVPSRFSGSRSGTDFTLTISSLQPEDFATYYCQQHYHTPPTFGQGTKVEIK
notes: IgG
B9: MYT2185 (antibody, V domains shown)
VH: EVQLVESGGGVVQPGRSLRLSCSASHFTFSGYGLSWVRQAPGKGLEWVAMISSGGSYTYYADSVKGRFAISRDNAKNTLFLQMDSLRPEDTGVYFCARHGDDPAWFAYWGQGTPVTVSS
VL: DIQLTQSPSSLSASVGDRVTITCSVSSSISSNNLHWYQQKPGKAPKPWIYGTSNLASGVPSRFSGSGSGTDYTFTISSLQPEDIATYYCQQWSSYPYMYTFGQGTKVEIK
notes: IgG
B10: MYT2187 (antibody, V domains shown)
VH: EVQLVESGGGVVQPGRSLRLSCSASGFHFSGYGLSWVRQAPGKGLEWVAMISSGGSYTYYADSVKGRFAISRDNAKNTLFLQMDSLRPEDTGVYFCARHGDDPAWFAYWGQGTPVTVSS
VL: DIQLTQSPSSLSASVGDRVTITCSVSSSISSNNLHWYQQKPGKAPKPWIYGTSNLASGVPSRFSGSGSGTDYTFTISSLQPEDIATYYCQQWSSYPYMYTFGQGTKVEIK
notes: IgG
B11: MYT2186 (antibody, V domains shown)
VH: EVQLVESGGGVVQPGRSLRLSCSASGHTFSGYGLSWVRQAPGKGLEWVAMISSGGSYTYYADSVKGRFAISRDNAKNTLFLQMDSLRPEDTGVYFCARHGDDPAWFAYWGQGTPVTVSS
VL: DIQLTQSPSSLSASVGDRVTITCSVSSSISSNNLHWYQQKPGKAPKPWIYGTSNLASGVPSRFSGSGSGTDYTFTISSLQPEDIATYYCQQWSSYPYMYTFGQGTKVEIK
notes: IgG

Molecular target: T1, FOLR1 (R&D Systems, Cat #5646-FR) (human, UniProt P15328 25-233)
T1 construct: Bought soluble protein; also called Folate Receptor 1
T1 sequence (P15328 25-233 limits assumed): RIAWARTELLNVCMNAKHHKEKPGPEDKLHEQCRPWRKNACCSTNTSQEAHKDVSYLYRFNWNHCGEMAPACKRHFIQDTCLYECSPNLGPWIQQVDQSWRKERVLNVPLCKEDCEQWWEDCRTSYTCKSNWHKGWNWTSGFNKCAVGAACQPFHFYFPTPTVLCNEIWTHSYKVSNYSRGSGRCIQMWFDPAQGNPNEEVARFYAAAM
Experiment: BLI, IgG on anti-human Fc sensor, 50 nM FOLR1

Binder	binding result
B1	binds
B2	binds
B3	binds
B4	binds
B5	binds
B6	binds
B7	binds
B8	binds
B9	binds
B10	binds
B11	binds

From patent US20220298260A1 (MYTHIC THERAPEUTICS, published 2022)
